Where a chain is given by its changes, count along the chain named. Numbers in names are those of the source.
B1: A06 F05-hFc (S239/442C T366Y/Y407T), [G4S]1 linker, MC-vc-PAB-MMAE conjugate, #712 (Fc fusion, DAR 4)
chain 1: QVHLVESGGGLVQAGGSLRLSCAASGRTFLSMGWFRQAPGKEREFVAAISWTGGSTGYADSVKGRFTISRESDKETMYLQMNSLKPEDTAVYYCAARGDVYYGGDDATRYKYWGQGTQVTVSSGGGGSEPKSSDKTHTCPPCPAPELLGGPCVFLFPPKPKDTLMISRTPEVTCVVVDVSHEDPEVKFNWYVDGVEVHNAKTKPREEQYNSTYRVVSVLTVLHQDWLNGKEYKCKVSNKALPAPIEKTISKAKGQPREPQVYTLPPSRDELTKNQVSLYCLVKGFYPSDIAVEWESNGQPENNYKTTPPVLDSDGSFFLYSKLTVDKSRWQQGNVFSCSVMHEALHNHYTQKSLCLSPGK
chain 2: QVQLVESGGGLVQAGGSLRLSCAASGRAFGDYNIGWFRQAPGKEREFVARRTWDGSSTRYDDSVKGRFTVSIDNAKNTAYLQMNSLKTEDTAVYYCAAGRYSRVRGWEYDYWGQGTQVTVSSGGGGSEPKSSDKTHTCPPCPAPELLGGPCVFLFPPKPKDTLMISRTPEVTCVVVDVSHEDPEVKFNWYVDGVEVHNAKTKPREEQYNSTYRVVSVLTVLHQDWLNGKEYKCKVSNKALPAPIEKTISKAKGQPREPQVYTLPPSRDELTKNQVSLTCLVKGFYPSDIAVEWESNGQPENNYKTTPPVLDSDGSFFLTSKLTVDKSRWQQGNVFSCSVMHEALHNHYTQKSLCLSPGK
modifications: here or on the partner: MC-vc-PAB-MMAE on Cys of S239C and S442C (EU numbering)
B2: D10 E06-hFc (S239/442C T366Y/Y407T), [G4S]1 linker, MC-vc-PAB-MMAE conjugate, #677 (Fc fusion, DAR 4)
chain 1: QVQLVESGGGLVQPGGSLRLSCAASGSIFSVNTMGWYRQAPGKQRDLVAVATSGGTIHYADSVKGRFTISRDNAKNTVYLQMNSLKPEDTAVYYCNLVVPYGMIAGDHDYWGQGTKVTVSSGGGGSEPKSSDKTHTCPPCPAPELLGGPCVFLFPPKPKDTLMISRTPEVTCVVVDVSHEDPEVKFNWYVDGVEVHNAKTKPREEQYNSTYRVVSVLTVLHQDWLNGKEYKCKVSNKALPAPIEKTISKAKGQPREPQVYTLPPSRDELTKNQVSLYCLVKGFYPSDIAVEWESNGQPENNYKTTPPVLDSDGSFFLYSKLTVDKSRWQQGNVFSCSVMHEALHNHYTQKSLCLSPGK
chain 2: QVHLVESGGGLVQAGGSLRLSCAASRRSFSEYAMGWFRQAPGKEREFVAAIGWSGVIEYADSVKGRFTISRDNAKDTVYLQMNSLKPEDTAVYYCAAGLGIRVVSQTPAYWGQGTQVTVSSGGGGSEPKSSDKTHTCPPCPAPELLGGPCVFLFPPKPKDTLMISRTPEVTCVVVDVSHEDPEVKFNWYVDGVEVHNAKTKPREEQYNSTYRVVSVLTVLHQDWLNGKEYKCKVSNKALPAPIEKTISKAKGQPREPQVYTLPPSRDELTKNQVSLTCLVKGFYPSDIAVEWESNGQPENNYKTTPPVLDSDGSFFLTSKLTVDKSRWQQGNVFSCSVMHEALHNHYTQKSLCLSPGK
modifications: here or on the partner: MC-vc-PAB-MMAE on Cys of S239C and S442C (EU numbering)
B3: D10 E10-hFc (S239/442C T366Y/Y407T), [G4S]1 linker, MC-vc-PAB-MMAE conjugate, #678 (Fc fusion, DAR 4)
chain 1: B2 chain 1
chain 2: B1 chain 2 with A24V, F29L, G30S, R51K, D73E, N74D, N84S, V104A
modifications: here or on the partner: MC-vc-PAB-MMAE on Cys of S239C and S442C (EU numbering)
B4: D10 F05-hFc (S239/442C T366Y/Y407T), [G4S]1 linker, MC-vc-PAB-MMAE conjugate, #679 (Fc fusion, DAR 4)
chain 1: B2 chain 1
chain 2: B1 chain 2
modifications: here or on the partner: MC-vc-PAB-MMAE on Cys of S239C and S442C (EU numbering)
B5: D10 A06-hFc (S239/442C T366Y/Y407T), [G4S]3 linker, MC-vc-PAB-MMAE conjugate, #633 (Fc fusion, DAR 4)
chain 1: QVQLVESGGGLVQPGGSLRLSCAASGSIFSVNTMGWYRQAPGKQRDLVAVATSGGTIHYADSVKGRFTISRDNAKNTVYLQMNSLKPEDTAVYYCNLVVPYGMIAGDHDYWGQGTKVTVSSGGGGSGGGGSGGGGSEPKSSDKTHTCPPCPAPELLGGPCVFLFPPKPKDTLMISRTPEVTCVVVDVSHEDPEVKFNWYVDGVEVHNAKTKPREEQYNSTYRVVSVLTVLHQDWLNGKEYKCKVSNKALPAPIEKTISKAKGQPREPQVYTLPPSRDELTKNQVSLYCLVKGFYPSDIAVEWESNGQPENNYKTTPPVLDSDGSFFLYSKLTVDKSRWQQGNVFSCSVMHEALHNHYTQKSLCLSPGK
chain 2: QVHLVESGGGLVQAGGSLRLSCAASGRTFLSMGWFRQAPGKEREFVAAISWTGGSTGYADSVKGRFTISRESDKETMYLQMNSLKPEDTAVYYCAARGDVYYGGDDATRYKYWGQGTQVTVSSGGGGSGGGGSGGGGSEPKSSDKTHTCPPCPAPELLGGPCVFLFPPKPKDTLMISRTPEVTCVVVDVSHEDPEVKFNWYVDGVEVHNAKTKPREEQYNSTYRVVSVLTVLHQDWLNGKEYKCKVSNKALPAPIEKTISKAKGQPREPQVYTLPPSRDELTKNQVSLTCLVKGFYPSDIAVEWESNGQPENNYKTTPPVLDSDGSFFLTSKLTVDKSRWQQGNVFSCSVMHEALHNHYTQKSLCLSPGK
modifications: here or on the partner: MC-vc-PAB-MMAE on Cys of S239C and S442C (EU numbering)
B6: D10 F05-hFc (S239/442C T366Y/Y407T), [G4S]3 linker, MC-vc-PAB-MMAE conjugate, #637 (Fc fusion, DAR 4)
chain 1: B5 chain 1
chain 2: QVQLVESGGGLVQAGGSLRLSCAASGRAFGDYNIGWFRQAPGKEREFVARRTWDGSSTRYDDSVKGRFTVSIDNAKNTAYLQMNSLKTEDTAVYYCAAGRYSRVRGWEYDYWGQGTQVTVSSGGGGSGGGGSGGGGSEPKSSDKTHTCPPCPAPELLGGPCVFLFPPKPKDTLMISRTPEVTCVVVDVSHEDPEVKFNWYVDGVEVHNAKTKPREEQYNSTYRVVSVLTVLHQDWLNGKEYKCKVSNKALPAPIEKTISKAKGQPREPQVYTLPPSRDELTKNQVSLTCLVKGFYPSDIAVEWESNGQPENNYKTTPPVLDSDGSFFLTSKLTVDKSRWQQGNVFSCSVMHEALHNHYTQKSLCLSPGK
modifications: here or on the partner: MC-vc-PAB-MMAE on Cys of S239C and S442C (EU numbering)
B7: A06 F05-hFc (S239/442C T366Y/Y407T), [G4S]3 linker, MC-vc-PAB-MMAE conjugate, #665 (Fc fusion, DAR 4)
chain 1: B5 chain 2 with T289Y, T330Y
chain 2: B6 chain 2
modifications: here or on the partner: MC-vc-PAB-MMAE on Cys of S239C and S442C (EU numbering)
B8: D10 E06-hFc (S239/442C T366Y/Y407T), [G4S]3 linker, MC-vc-PAB-MMAE conjugate, #634 (Fc fusion, DAR 4)
chain 1: B5 chain 1
chain 2: QVHLVESGGGLVQAGGSLRLSCAASRRSFSEYAMGWFRQAPGKEREFVAAIGWSGVIEYADSVKGRFTISRDNAKDTVYLQMNSLKPEDTAVYYCAAGLGIRVVSQTPAYWGQGTQVTVSSGGGGSGGGGSGGGGSEPKSSDKTHTCPPCPAPELLGGPCVFLFPPKPKDTLMISRTPEVTCVVVDVSHEDPEVKFNWYVDGVEVHNAKTKPREEQYNSTYRVVSVLTVLHQDWLNGKEYKCKVSNKALPAPIEKTISKAKGQPREPQVYTLPPSRDELTKNQVSLTCLVKGFYPSDIAVEWESNGQPENNYKTTPPVLDSDGSFFLTSKLTVDKSRWQQGNVFSCSVMHEALHNHYTQKSLCLSPGK
modifications: here or on the partner: MC-vc-PAB-MMAE on Cys of S239C and S442C (EU numbering)
B9: D10 E10-hFc (S239/442C T366Y/Y407T), [G4S]3 linker, MC-vc-PAB-MMAE conjugate, #636 (Fc fusion, DAR 4)
chain 1: B5 chain 1
chain 2: B6 chain 2 with A24V, F29L, G30S, R51K, D73E, N74D, N84S, V104A
modifications: here or on the partner: MC-vc-PAB-MMAE on Cys of S239C and S442C (EU numbering)
B10: A06 E06-hFc (S239/442C T366Y/Y407T), [G4S]3 linker, MC-vc-PAB-MMAE conjugate, #639 (Fc fusion, DAR 4)
chain 1: B5 chain 2 with T289Y, T330Y
chain 2: B8 chain 2
modifications: here or on the partner: MC-vc-PAB-MMAE on Cys of S239C and S442C (EU numbering)
B11: A06 E10-hFc (S239/442C T366Y/Y407T), [G4S]3 linker, MC-vc-PAB-MMAE conjugate, #664 (Fc fusion, DAR 4)
chain 1: B5 chain 2 with T289Y, T330Y
chain 2: B6 chain 2 with A24V, F29L, G30S, R51K, D73E, N74D, N84S, V104A
modifications: here or on the partner: MC-vc-PAB-MMAE on Cys of S239C and S442C (EU numbering)

Molecular target: ALPP/ALPPL2 on ALPP/ALPPL2 positive cancer cells (MKN1, NCI-H1651, NCI-N87, Caov-3, HPAC)
Test: cell-based or functional assay

| Binder | % viability remaining at 96 h, MKN1 cells [%] | % viability remaining at 96 h, NCI-H1651 cells [%] | % viability remaining at 96 h, NCI-N87 cells [%] | IC50 at 96 h, cell-killing of MKN1 cells [nM] | IC50 at 96 h, cell-killing of NCI-H1651 cells [nM] | IC50 at 96 h, cell-killing of NCI-N87 cells [nM] |
| --- | --- | --- | --- | --- | --- | --- |
| B1 | 27.1 | 31.3 | 20.7 | 45.9 | 0.9 | 0.7 |
| B2 | 5.3 | 28.9 | 25.5 | 31.8 | 1.3 | 0.6 |
| B3 | 24.5 | 31 | 23.6 | 8.1 | 0.6 | 0.5 |
| B4 | 25.2 | 31.2 | 21.8 | 9.7 | 0.8 | 0.6 |
| B5 | 27.9 | 25.4 | 27.3 | 1.4 | 5.4 | 4.9 |
| B6 | 28.1 | 28 | 28.9 | 1.3 | 1.2 | 5.1 |
| B7 | 31.6 | 25 | 27 | 0.7 | 0.4 | 5.8 |
| B8 | 31.1 | 28.5 | 27.6 | 2.6 | 1.1 | 2.4 |
| B9 | 30 | 28.9 | 26.2 | 1.9 | 0.9 | 2.1 |
| B10 | 30.6 | 28 | 27.8 | 2.3 | 0.9 | 12.9 |
| B11 | 29.7 | 27.2 | 28.7 | 0.9 | 0.6 | 4.7 |
